Laboratory results: publication PMC4379586

Experiments:
[1] = tested on: MDM2 C-terminal RING domain (GST fusion) (human); assay: ITC; details: ITC: 10 mM Hepes pH 7.2, 150 mM NaCl, temperature not stated; fluorescence titration (ex 280 nm, em 335 nm): buffer and temperature not stated
[2] = tested on: MDM2 C-terminal RING domain (GST fusion) (human); assay: intrinsic protein fluorescence titration; details: ITC: 10 mM Hepes pH 7.2, 150 mM NaCl, temperature not stated; fluorescence titration (ex 280 nm, em 335 nm): buffer and temperature not stated

Substance “XIAP IRES RNA (small, RNP core binding site)” has a Kd [1] of 700 nM and a Kd [2] of 680 nM.
